The results in this text go back to paper PMC1796551, “Breast cancer metastasis suppressor 1 (BRMS1) inhibits osteopontin transcription by abrogating NF-κB activation”.

What all share (conditions): protein: commercial; chain copies: 2; label: biotin; only one strand given
The target of one series is p50 (Homo sapiens, UniProt P19838 1-433). The experiment in a line: EMSA; 10 mM Tris, 50 mM KCl, 1 mM DTT, 5 mM MgCl2, 1 ug poly(dI-dC), 20 fmol biotinylated probe, 100 ng p65 or 66 ng p50, room temperature 30 min; pH not stated.
Series [1] addresses T1, p65 (RelA) (Homo sapiens, UniProt Q04206 1-551). Kind of series: EMSA; supershift with anti-p65 (lane 6); 10 mM Tris, 50 mM KCl, 1 mM DTT, 5 mM MgCl2, 1 ug poly(dI-dC), 20 fmol biotinylated probe, 100 ng p65 or 66 ng p50, room temperature 30 min; pH not stated. Background: Mobility shift assays separate free from complexed probe on a gel.
Series [2] concerns the target T1, p65 (RelA). The experiment in a line: EMSA; 10 mM Tris, 50 mM KCl, 1 mM DTT, 5 mM MgCl2, 1 ug poly(dI-dC), 20 fmol biotinylated probe, 100 ng p65 or 66 ng p50, room temperature 30 min; pH not stated.

Chain of p50 (P19838 1-433): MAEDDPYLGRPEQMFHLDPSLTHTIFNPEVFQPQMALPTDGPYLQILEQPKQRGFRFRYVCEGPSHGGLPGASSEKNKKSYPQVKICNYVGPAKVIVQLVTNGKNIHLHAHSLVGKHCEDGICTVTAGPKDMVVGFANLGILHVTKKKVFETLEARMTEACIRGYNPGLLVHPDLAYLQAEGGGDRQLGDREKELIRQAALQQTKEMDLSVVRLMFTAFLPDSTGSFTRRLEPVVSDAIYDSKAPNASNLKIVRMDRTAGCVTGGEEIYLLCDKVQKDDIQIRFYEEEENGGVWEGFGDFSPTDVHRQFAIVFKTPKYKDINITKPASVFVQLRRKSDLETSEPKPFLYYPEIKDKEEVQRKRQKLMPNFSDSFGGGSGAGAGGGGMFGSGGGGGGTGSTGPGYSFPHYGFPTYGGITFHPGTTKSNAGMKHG
T1 sequence (Q04206 whole entry): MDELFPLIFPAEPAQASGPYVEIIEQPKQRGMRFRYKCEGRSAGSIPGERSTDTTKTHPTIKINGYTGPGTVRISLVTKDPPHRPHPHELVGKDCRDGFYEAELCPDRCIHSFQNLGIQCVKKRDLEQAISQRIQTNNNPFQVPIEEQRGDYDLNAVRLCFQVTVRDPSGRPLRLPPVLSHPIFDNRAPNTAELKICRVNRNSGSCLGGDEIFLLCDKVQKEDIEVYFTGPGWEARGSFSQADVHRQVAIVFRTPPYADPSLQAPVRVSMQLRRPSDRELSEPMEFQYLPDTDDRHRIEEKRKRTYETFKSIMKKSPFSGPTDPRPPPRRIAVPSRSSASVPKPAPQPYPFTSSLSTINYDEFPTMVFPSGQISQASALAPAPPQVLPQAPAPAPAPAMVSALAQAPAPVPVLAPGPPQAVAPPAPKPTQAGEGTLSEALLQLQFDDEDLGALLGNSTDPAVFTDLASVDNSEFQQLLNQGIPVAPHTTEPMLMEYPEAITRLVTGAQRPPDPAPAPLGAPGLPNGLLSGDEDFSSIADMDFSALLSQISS

B1: OPN/NF-kB (dsDNA)
DNA 1: GAATTTCATGGGGAAGTCCAAATTCTAAG
DNA 2: CTTAGAATTTGGACTTCCCCATGAAATTC
For the molecule B1, the binding result with p50 and with p65 (RelA) [1] was “binds” each time.

B2: Mut OPN/NF-kB (dsDNA)
DNA 1: GAATTTCATGCGGACTTCGAAATTCTAAG
DNA 2: CTTAGAATTTCGAAGTCCGCATGAAATTC
On to B2, for which the binding result with p65 (RelA) [2] and with p50 was “no binding” in each case.
